Test results: the supplement of paper PMC11780869

Test system: Bacillus subtilis
Assay: cleaved RNA product abundance (RNA/gDNA barcode ratio) relative to median wild-type variant (ratio to wild type); higher = more accumulation of the downstream cleavage product
Conditions: experiment (reporter, strain, medium): exp 8a: truncated aprE reporter, strain BJT201 with 2% xylose (RNase J1 expressed); cleavage site: glnRA (positions -5 to +31 mutated)
Summary of the method: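 Sequencing of barcodes from gel-selected, reverse-transcribed cleaved RNA and from genomic DNA, with UMI collapsing, yielded a per-construct RNA:gDNA ratio. Scaled to the median construct with the unmutated site, this ratio is the cleaved product abundance. The barcoded reporters (truncated aprE or tetM mRNAs with mutagenized RNase Y cleavage-site windows) were integrated into the B. subtilis chromosome, and cultures grew in LB at 37°C from OD600 0.0003 to 0.3.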

Sequence	cleaved RNA product abundance
CGACATGTCCCGCTTCTTTCATTAATCCGTTAGCAACTGCTTTGCTATATACATTAACCTTTTAAGAGGAGGAAT	0.575
CGACATGTCCCGCTTCTTTCATTAATCCGTTAGCAACTGCTTTGCTATATACATTTACCTTTTAAGAGGAGGAAT	0.307
CGACATGTCCCGCTTCTTTCATTAATCCGTTAGCAACTGCTTTGCTGTATACATTTACCTTTTAAGAGGAGGAAT	0.106
CGACATGTCCCGCTTCTTTCATTAATCCGTTAGCAACTGGTTTGATATATACATTTACCTTTTAAGAGGAGGAAT	0.485
CGACATGTCCCGCTTCTTTCATTAATCCGTTAGCAACTGGTTTGCTATATACATTTACCTTTTAAGAGGAGGAAT	0.811
CGACATGTCCCGCTTCTTTCATTAATCCGTTAGCAACTGGTTTGCTATATACATTTACTTTTTAAGAGGAGGAAT	0.918
CGACATGTCCCGCTTCTTTCATTAATCCGTTAGCAACTGGTTTGCTGTATACATTTACCTTTTAAGAGGAGGAAT	0.0825
CGACATGTCCCGCTTCTTTCATTAATCCGTTAGCAACTGTAATGCTATATACATTTACCTTTTAAGAGGAGGAAT	1.06
CGACATGTCCCGCTTCTTTCATTAATCCGTTAGCAACTGTACTGCTATATACATTTACCTTTTAAGAGGAGGAAT	0.328
CGACATGTCCCGCTTCTTTCATTAATCCGTTAGCAACTGTATTACTATATACATTTACCTTTTAAGAGGAGGAAT	0.835
CGACATGTCCCGCTTCTTTCATTAATCCGTTAGCAACTGTATTCCTATATACATTTACCTTTTAAGAGGAGGAAT	0.45
CGACATGTCCCGCTTCTTTCATTAATCCGTTAGCAACTGTATTGATATATACATTTACCTTTTAAGAGGAGGAAT	0.658
CGACATGTCCCGCTTCTTTCATTAATCCGTTAGCAACTGTATTGCAATATACATTTACCTTTTAAGAGGAGGAAT	0.678
CGACATGTCCCGCTTCTTTCATTAATCCGTTAGCAACTGTATTGCTAAATACATTTACCTTTTAAGAGGAGGAAT	0.438
CGACATGTCCCGCTTCTTTCATTAATCCGTTAGCAACTGTATTGCTATATAAATTTACCTTTTAAGAGGAGGAAT	0.849
CGACATGTCCCGCTTCTTTCATTAATCCGTTAGCAACTGTATTGCTATATACATATACCTTTTAAGAGGAGGAAT	0.755
CGACATGTCCCGCTTCTTTCATTAATCCGTTAGCAACTGTATTGCTATATACATGTACCTTTTAAGAGGAGGAAT	0.783
CGACATGTCCCGCTTCTTTCATTAATCCGTTAGCAACTGTATTGCTATATACATTTAACTTTTAAGAGGAGGAAT	1.13
CGACATGTCCCGCTTCTTTCATTAATCCGTTAGCAACTGTATTGCTATATACATTTACATTTTAAGAGGAGGAAT	1.47
CGACATGTCCCGCTTCTTTCATTAATCCGTTAGCAACTGTATTGCTATATACATTTACCCTTTAAGAGGAGGAAT	1.1
CGACATGTCCCGCTTCTTTCATTAATCCGTTAGCAACTGTATTGCTATATACATTTACCTTTTAAGAGGAGGAAT	0.943
CGACATGTCCCGCTTCTTTCATTAATCCGTTAGCAACTGTATTGCTATATACATTTACGTTTTAAGAGGAGGAAT	1.16

Sequence	cleaved RNA product abundance
CGACATGTCCCGCTTCTTTCATTAATCCGTTAGCAACTGTATTGCTATATACATTTATCTTTTAAGAGGAGGAAT	1.07
CGACATGTCCCGCTTCTTTCATTAATCCGTTAGCAACTGTATTGCTATATTCATTTACCTTTTAAGAGGAGGAAT	0.16
CGACATGTCCCGCTTCTTTCATTAATCCGTTAGCAACTGTATTGCTATTTACATTTACCTTTTAAGAGGAGGAAT	0.202
CGACATGTCCCGCTTCTTTCATTAATCCGTTAGCAACTGTATTGGTATATACATTTACCTTTTAAGAGGAGGAAT	0.175
CGACATGTCCCGCTTCTTTCATTAATCCGTTAGCAACTGTATTTCTATATACATTTACCTTTTAAGAGGAGGAAT	0.506
CGACATGTCCCGCTTCTTTCATTAATCCGTTAGCAACTGTCTTACTATATACATTTACCTTTTAAGAGGAGGAAT	0.324
CGACATGTCCCGCTTCTTTCATTAATCCGTTAGCAACTGTCTTGATATATACATTTACCTTTTAAGAGGAGGAAT	0.547
CGACATGTCCCGCTTCTTTCATTAATCCGTTAGCAACTGTCTTGCTATATACATTTACCTTTTAAGAGGAGGAAT	0.849
CGACATGTCCCGCTTCTTTCATTAATCCGTTAGCAACTGTCTTGCTATCTACATTTACCTTTTAAGAGGAGGAAT	0.0931
CGACATGTCCCGCTTCTTTCATTAATCCGTTAGCAACTGTGTAGCTATATACATTTACCTTTTAAGAGGAGGAAT	0.23
CGACATGTCCCGCTTCTTTCATTAATCCGTTAGCAACTGTGTTACTATATACATTTACCTTTTAAGAGGAGGAAT	0.274
CGACATGTCCCGCTTCTTTCATTAATCCGTTAGCAACTGTGTTGCTATATACATTTACATTTTAAGAGGAGGAAT	0.517
CGACATGTCCCGCTTCTTTCATTAATCCGTTAGCAACTGTGTTGCTATATACATTTACCATTTAAGAGGAGGAAT	0.38
CGACATGTCCCGCTTCTTTCATTAATCCGTTAGCAACTGTGTTGCTATATACATTTACCGTTTAAGAGGAGGAAT	0.537
CGACATGTCCCGCTTCTTTCATTAATCCGTTAGCAACTGTGTTGCTATATACATTTACCTTTTAAGAGGAGGAAT	0.358
CGACATGTCCCGCTTCTTTCATTAATCCGTTAGCAACTGTGTTGTTATATACATTTACCTTTTAAGAGGAGGAAT	1.01
CGACATGTCCCGCTTCTTTCATTAATCCGTTAGCAACTGTGTTTCTATATACATTTAACTTTTAAGAGGAGGAAT	0.453
CGACATGTCCCGCTTCTTTCATTAATCCGTTAGCAACTGTTAAGCTATATACATTTACCTTTTAAGAGGAGGAAT	0.279
CGACATGTCCCGCTTCTTTCATTAATCCGTTAGCAACTGTTACGCTATATACATTTACCTTTTAAGAGGAGGAAT	0.54
CGACATGTCCCGCTTCTTTCATTAATCCGTTAGCAACTGTTATCCTATATACATTTACCTTTTAAGAGGAGGAAT	0.337
CGACATGTCCCGCTTCTTTCATTAATCCGTTAGCAACTGTTATGATATATACATTTACCTTTTAAGAGGAGGAAT	0.387
CGACATGTCCCGCTTCTTTCATTAATCCGTTAGCAACTGTTATGCCATATACATTTACCTTTTAAGAGGAGGAAT	0.232

Sequence	cleaved RNA product abundance
CGACATGTCCCGCTTCTTTCATTAATCCGTTAGCAACTGTTATGCTAAATACATTTACCTTTTAAGAGGAGGAAT	0.111
CGACATGTCCCGCTTCTTTCATTAATCCGTTAGCAACTGTTATGCTATATACAATTACCTTTTAAGAGGAGGAAT	1.02
CGACATGTCCCGCTTCTTTCATTAATCCGTTAGCAACTGTTATGCTATATACATTTACCTTTTAAGAGGAGGAAT	0.695
CGACATGTCCCGCTTCTTTCATTAATCCGTTAGCAACTGTTATGCTATATACATTTACTTTTTAAGAGGAGGAAT	1.33
CGACATGTCCCGCTTCTTTCATTAATCCGTTAGCAACTGTTATGCTATATACATTTAGCTTTTAAGAGGAGGAAT	0.711
CGACATGTCCCGCTTCTTTCATTAATCCGTTAGCAACTGTTATGCTATATACCTTTACCTTTTAAGAGGAGGAAT	0.184
CGACATGTCCCGCTTCTTTCATTAATCCGTTAGCAACTGTTATGCTATATACGTTTACCTTTTAAGAGGAGGAAT	0.232
CGACATGTCCCGCTTCTTTCATTAATCCGTTAGCAACTGTTATGCTATATAGATTTACCTTTTAAGAGGAGGAAT	1.29
CGACATGTCCCGCTTCTTTCATTAATCCGTTAGCAACTGTTATGGTATATACATTTACCTTTTAAGAGGAGGAAT	0.161
CGACATGTCCCGCTTCTTTCATTAATCCGTTAGCAACTGTTATGTTATATACATTTACCTTTTAAGAGGAGGAAT	0.172
CGACATGTCCCGCTTCTTTCATTAATCCGTTAGCAACTGTTATTCTATATACATTTACCTTTTAAGAGGAGGAAT	0.506
CGACATGTCCCGCTTCTTTCATTAATCCGTTAGCAACTGTTCAGCTATATACATTTACCTTTTAAGAGGAGGAAT	0.344
CGACATGTCCCGCTTCTTTCATTAATCCGTTAGCAACTGTTCTGCAATATACATTTACCTTTTAAGAGGAGGAAT	0.103
CGACATGTCCCGCTTCTTTCATTAATCCGTTAGCAACTGTTCTGCTATATACATGTACCTTTTAAGAGGAGGAAT	0.386
CGACATGTCCCGCTTCTTTCATTAATCCGTTAGCAACTGTTCTGCTATATACATTTACCTTTTAAGAGGAGGAAT	0.446
CGACATGTCCCGCTTCTTTCATTAATCCGTTAGCAACTGTTCTGCTATATACATTTACTTTTTAAGAGGAGGAAT	0.495
CGACATGTCCCGCTTCTTTCATTAATCCGTTAGCAACTGTTCTGCTATATATATTTACCTTTTAAGAGGAGGAAT	0.554
CGACATGTCCCGCTTCTTTCATTAATCCGTTAGCAACTGTTGTACTATATACATTTACCTTTTAAGAGGAGGAAT	0.713
CGACATGTCCCGCTTCTTTCATTAATCCGTTAGCAACTGTTGTCCTATATACATTTACCTTTTAAGAGGAGGAAT	0.343
CGACATGTCCCGCTTCTTTCATTAATCCGTTAGCAACTGTTGTGCAATATACATTTACCTTTTAAGAGGAGGAAT	0.249
CGACATGTCCCGCTTCTTTCATTAATCCGTTAGCAACTGTTGTGCTAAATACATTTACCTTTTAAGAGGAGGAAT	0.266
CGACATGTCCCGCTTCTTTCATTAATCCGTTAGCAACTGTTGTGCTATAAACATTTACCTTTTAAGAGGAGGAAT	0.453
